Experimental findings from PMC3605307 (2013) are described below.

Holding throughout (experiment): SPR
(In general: Surface plasmon resonance follows binding to a sensor surface in real time, without labels.)

The target in assay [1] is Human TRAIL-R2-Fc D109A together with E78A (human, UniProt O14763 58-184, E78A | D109A).
Assay [2] deals with Human TRAIL-R2-Fc triple mutation V167A-W173A-V179A (human, UniProt O14763 58-184, V167A | W173A | V179A).
The target in a further assay is Human TRAIL-R2-Fc V167A (human, UniProt O14763 58-184, V167A).
The target in a further assay is Human TRAIL-R2-Fc F112A (human, UniProt O14763 58-184, F112A).
Human TRAIL-R2-Fc F112A, sequence (O14763 58-184 F112A): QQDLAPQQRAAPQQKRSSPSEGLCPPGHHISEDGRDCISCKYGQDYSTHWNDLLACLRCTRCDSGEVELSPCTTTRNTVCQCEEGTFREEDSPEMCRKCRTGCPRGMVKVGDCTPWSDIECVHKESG

Human TRAIL-R2-Fc D109A together with E78A, sequence (O14763 58-184 E78A/D109A): as the sequence (O14763 58-184 F112A) above, with E21A, D52A, A55F counted along it
Human TRAIL-R2-Fc V167A, sequence (O14763 58-184 V167A): as the sequence (O14763 58-184 F112A) above, with A55F, V110A counted along it
Human TRAIL-R2-Fc triple mutation V167A-W173A-V179A, sequence (O14763 58-184 V167A/W173A/V179A): as the sequence (O14763 58-184 F112A) above, with A55F, V110A, W116A, V122A counted along it

B1: TRAIL (TNF-related apoptosis inducing ligand) ectodomain (ligand)
chain: TNELKQMQDKYSKSGIACFLKEDDSYWDPNDEESMNSPCWQVKWQLRQLVRKMILRTSEETISTVQEKQQNISPLVRERGPQRVAAHITGTRGRSNTLSSPNSKNEKALGRKINSWESSRSGHSFLSNLHLRNGELVIHEKGFYYIYSQTYFRFQEEIKENTKNDKQMVQYIYKYTSYPDPILLMKSARNSCWSKDAEYGLYSIYQGGIFELKENDRIFVSVTNEHLIDMDHEASFFGAFLVG
Broadly, the Kd is the equilibrium constant for the complex coming apart. For the molecule B1, the Kd (in assay [1]; in assay [2]; in the assay with Human TRAIL-R2-Fc V167A; with Human TRAIL-R2-Fc F112A) was 4 nM each time.

B2: Recombinant UL141 ectodomain (soluble, released from the Fc fusion) (domain or fragment)
chain: SFPFATADIAEKMWAENYETTSPAPVLVAEGEQVTIPCTVMTHSWPMVSIRARFCRSHDGSDELILDAVKGHRLMNGLQYRLPYATWNFSQLHLGQIFSLTFNVSTDTAGMYECVLRNYSHGLIMQRFVILTQLETLSRPDEPCCTPALGRYSLGDQIWSPTPWRLRNHDCGMYRGFQRNYFYIGRADAEDCWKPACPDEEPDRCWTVIQRYRLPGDCYRSQPHPPKFLPVTPAPPADIDTGMSPWATRG
B2: in assay [1], the equilibrium dissociation constant (Kd) stood at 60 nM.
